{
  "source": "patent US10344077",
  "about": "(DUKE UNIVERSITY, dated 2019)",
  "binders": {"B1": {"name": "CH557 (antibody, V domains shown)", "VH": "QVRLAQYGGGVKRLGATMTLSCVASGYTFNDYYIHWVRQAPGQGFELLGYIDPANGRPDYAGALRERLSFYRDKSMETLYMDLRSLRYDDTAMYYCVRNVGTAGSLLHYDHWGSGSPVIVSS", "VL": "EIVLTQSPATLSASPGERVTLTCRASRSVRNNVAWYQHKGGQSPRLLIYDASTRAAGVPARFSGSASGTEFTLAISNLESEDFTVYFCLQYNNWWTFGQGTRVDIK", "notes": "also called CH557_4A/293i"}},
  "key": {"SSB [1]": {"target": "T1, SSB (UniProt P05455 1-408)", "T1 sequence (looked up)": "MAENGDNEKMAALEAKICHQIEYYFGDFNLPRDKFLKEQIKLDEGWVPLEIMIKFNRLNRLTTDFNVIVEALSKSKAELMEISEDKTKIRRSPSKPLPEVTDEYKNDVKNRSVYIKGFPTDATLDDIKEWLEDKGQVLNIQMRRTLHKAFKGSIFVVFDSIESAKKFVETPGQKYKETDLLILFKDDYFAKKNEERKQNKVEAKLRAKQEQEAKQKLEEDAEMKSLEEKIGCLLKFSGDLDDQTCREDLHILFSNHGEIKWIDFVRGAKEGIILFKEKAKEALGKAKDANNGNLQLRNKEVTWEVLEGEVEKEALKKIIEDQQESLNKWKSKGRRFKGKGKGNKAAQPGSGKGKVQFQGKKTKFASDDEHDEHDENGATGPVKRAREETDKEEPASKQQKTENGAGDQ", "test": "AtheNA", "excerpt": "(§1) AtheNA Multi-Lyte ANA Plus Test System is one such assay. This is luminex-based assay, which is also used to screen patient sera."}, "Scl-70 [2]": {"target": "T2, Scl-70 (UniProt P11387 2-765)", "T2 sequence (looked up)": "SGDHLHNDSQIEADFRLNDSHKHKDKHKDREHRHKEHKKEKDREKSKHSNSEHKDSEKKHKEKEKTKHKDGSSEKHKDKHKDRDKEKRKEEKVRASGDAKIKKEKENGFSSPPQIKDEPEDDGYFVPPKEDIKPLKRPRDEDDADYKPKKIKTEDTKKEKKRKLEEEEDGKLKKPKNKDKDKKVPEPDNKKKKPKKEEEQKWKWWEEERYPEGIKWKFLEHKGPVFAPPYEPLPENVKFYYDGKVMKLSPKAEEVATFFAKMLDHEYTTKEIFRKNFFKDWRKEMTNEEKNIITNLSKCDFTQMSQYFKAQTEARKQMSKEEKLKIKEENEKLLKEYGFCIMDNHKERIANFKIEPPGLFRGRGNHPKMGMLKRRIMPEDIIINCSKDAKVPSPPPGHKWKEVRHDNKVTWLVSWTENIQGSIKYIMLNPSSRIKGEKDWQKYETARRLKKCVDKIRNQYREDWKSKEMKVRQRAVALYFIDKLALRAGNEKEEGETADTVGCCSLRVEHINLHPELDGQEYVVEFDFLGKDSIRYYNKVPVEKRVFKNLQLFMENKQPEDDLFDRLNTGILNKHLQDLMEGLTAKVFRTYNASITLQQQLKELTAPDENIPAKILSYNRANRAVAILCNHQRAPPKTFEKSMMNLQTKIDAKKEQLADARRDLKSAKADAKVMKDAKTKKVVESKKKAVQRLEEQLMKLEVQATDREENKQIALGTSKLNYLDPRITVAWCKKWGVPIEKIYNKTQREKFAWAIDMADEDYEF", "test": "AtheNA", "excerpt": "as §1"}, "Jo-1 [3]": {"target": "T3, Jo-1 (UniProt P12081 2-509)", "T3 sequence (looked up)": "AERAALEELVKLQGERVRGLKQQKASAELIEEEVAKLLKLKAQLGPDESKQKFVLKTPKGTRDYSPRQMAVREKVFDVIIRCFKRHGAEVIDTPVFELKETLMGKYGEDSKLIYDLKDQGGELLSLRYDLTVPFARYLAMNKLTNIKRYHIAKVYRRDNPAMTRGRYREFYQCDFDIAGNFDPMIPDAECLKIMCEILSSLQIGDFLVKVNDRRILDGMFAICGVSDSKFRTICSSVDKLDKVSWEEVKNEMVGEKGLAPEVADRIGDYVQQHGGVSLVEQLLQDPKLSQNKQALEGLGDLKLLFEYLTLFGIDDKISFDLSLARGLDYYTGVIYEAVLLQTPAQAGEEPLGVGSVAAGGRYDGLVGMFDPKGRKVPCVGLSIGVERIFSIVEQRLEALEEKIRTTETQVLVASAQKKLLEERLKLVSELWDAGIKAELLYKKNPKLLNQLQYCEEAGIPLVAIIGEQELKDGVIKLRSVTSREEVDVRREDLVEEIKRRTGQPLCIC", "test": "AtheNA", "excerpt": "as §1"}, "STUB-1": {"target": "T4, STUB-1 (human, UniProt Q9UNE7 1-303)", "T4 sequence (looked up)": "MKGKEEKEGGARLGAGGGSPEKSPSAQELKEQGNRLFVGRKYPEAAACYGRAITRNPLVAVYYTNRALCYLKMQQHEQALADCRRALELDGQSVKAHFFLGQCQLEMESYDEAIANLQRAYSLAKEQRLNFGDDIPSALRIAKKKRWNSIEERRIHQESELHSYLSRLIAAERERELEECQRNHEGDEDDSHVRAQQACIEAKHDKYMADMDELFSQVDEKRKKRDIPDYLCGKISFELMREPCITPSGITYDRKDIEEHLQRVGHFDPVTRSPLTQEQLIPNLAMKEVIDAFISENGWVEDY", "test": "array of human antigens"}, "SSA [4]": {"target": "SSA", "test": "AtheNA, Ab 25 ug/ml", "excerpt": "as §1"}, "SSB [5]": {"target": "T1, SSB", "test": "AtheNA, Ab 25 ug/ml", "excerpt": "as §1"}, "Sm (Smith antigen) [6]": {"target": "Sm (Smith antigen)", "test": "AtheNA, Ab 25 ug/ml", "excerpt": "as §1"}, "RNP (ribonucleoprotein) [7]": {"target": "RNP (ribonucleoprotein)", "test": "AtheNA, Ab 25 ug/ml", "excerpt": "as §1"}, "Scl-70 [8]": {"target": "T2, Scl-70", "test": "AtheNA, Ab 25 ug/ml", "excerpt": "as §1"}, "Jo-1 [9]": {"target": "T3, Jo-1", "test": "AtheNA, Ab 25 ug/ml", "excerpt": "as §1"}, "Centromere B [10]": {"target": "T5, Centromere B (UniProt P07199 2-599)", "T5 construct": "also called Cent B", "T5 sequence (looked up)": "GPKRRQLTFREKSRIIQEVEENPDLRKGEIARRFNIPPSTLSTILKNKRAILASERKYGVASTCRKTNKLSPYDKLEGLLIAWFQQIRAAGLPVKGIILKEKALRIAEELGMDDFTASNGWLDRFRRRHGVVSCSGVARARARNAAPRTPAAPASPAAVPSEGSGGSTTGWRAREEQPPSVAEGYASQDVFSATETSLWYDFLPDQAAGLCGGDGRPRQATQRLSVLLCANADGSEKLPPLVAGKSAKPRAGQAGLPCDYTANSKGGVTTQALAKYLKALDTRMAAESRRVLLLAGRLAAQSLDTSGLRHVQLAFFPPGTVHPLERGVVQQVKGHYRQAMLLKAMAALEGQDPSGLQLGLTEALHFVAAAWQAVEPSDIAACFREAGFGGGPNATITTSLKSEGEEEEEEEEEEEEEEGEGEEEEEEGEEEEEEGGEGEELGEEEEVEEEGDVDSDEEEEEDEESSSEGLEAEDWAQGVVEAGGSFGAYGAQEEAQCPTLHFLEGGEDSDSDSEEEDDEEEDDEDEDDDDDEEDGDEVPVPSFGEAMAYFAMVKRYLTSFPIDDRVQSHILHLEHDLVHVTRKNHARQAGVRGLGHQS", "test": "AtheNA, Ab 25 ug/ml", "excerpt": "as §1"}, "Histones [11]": {"target": "Histones", "test": "AtheNA, Ab 25 ug/ml", "excerpt": "as §1"}, "SSA [12]": {"target": "SSA", "test": "AtheNA, Ab 50 ug/ml", "excerpt": "as §1"}, "SSB [13]": {"target": "T1, SSB", "test": "AtheNA, Ab 50 ug/ml", "excerpt": "as §1"}, "Sm (Smith antigen) [14]": {"target": "Sm (Smith antigen)", "test": "AtheNA, Ab 50 ug/ml", "excerpt": "as §1"}, "RNP (ribonucleoprotein) [15]": {"target": "RNP (ribonucleoprotein)", "test": "AtheNA, Ab 50 ug/ml", "excerpt": "as §1"}, "Scl-70 [16]": {"target": "T2, Scl-70", "test": "AtheNA, Ab 50 ug/ml", "excerpt": "as §1"}, "Jo-1 [17]": {"target": "T3, Jo-1", "test": "AtheNA, Ab 50 ug/ml", "excerpt": "as §1"}, "Centromere B [18]": {"target": "T5, Centromere B", "test": "AtheNA, Ab 50 ug/ml", "excerpt": "as §1"}, "Histones [19]": {"target": "Histones", "test": "AtheNA, Ab 50 ug/ml", "excerpt": "as §1"}, "SSA [20]": {"target": "SSA", "test": "AtheNA, Ab 12.5 ug/ml", "excerpt": "as §1"}, "SSB [21]": {"target": "T1, SSB", "test": "AtheNA, Ab 12.5 ug/ml", "excerpt": "as §1"}, "Sm (Smith antigen) [22]": {"target": "Sm (Smith antigen)", "test": "AtheNA, Ab 12.5 ug/ml", "excerpt": "as §1"}, "RNP (ribonucleoprotein) [23]": {"target": "RNP (ribonucleoprotein)", "test": "AtheNA, Ab 12.5 ug/ml", "excerpt": "as §1"}, "Scl-70 [24]": {"target": "T2, Scl-70", "test": "AtheNA, Ab 12.5 ug/ml", "excerpt": "as §1"}, "Jo-1 [25]": {"target": "T3, Jo-1", "test": "AtheNA, Ab 12.5 ug/ml", "excerpt": "as §1"}, "Centromere B [26]": {"target": "T5, Centromere B", "test": "AtheNA, Ab 12.5 ug/ml", "excerpt": "as §1"}, "Histones [27]": {"target": "Histones", "test": "AtheNA, Ab 12.5 ug/ml", "excerpt": "as §1"}, "SSA [28]": {"target": "SSA", "test": "AtheNA, Ab 6.25 ug/ml", "excerpt": "as §1"}, "SSB [29]": {"target": "T1, SSB", "test": "AtheNA, Ab 6.25 ug/ml", "excerpt": "as §1"}, "Sm (Smith antigen) [30]": {"target": "Sm (Smith antigen)", "test": "AtheNA, Ab 6.25 ug/ml", "excerpt": "as §1"}, "RNP (ribonucleoprotein) [31]": {"target": "RNP (ribonucleoprotein)", "test": "AtheNA, Ab 6.25 ug/ml", "excerpt": "as §1"}, "Scl-70 [32]": {"target": "T2, Scl-70", "test": "AtheNA, Ab 6.25 ug/ml", "excerpt": "as §1"}, "Jo-1 [33]": {"target": "T3, Jo-1", "test": "AtheNA, Ab 6.25 ug/ml", "excerpt": "as §1"}, "Centromere B [34]": {"target": "T5, Centromere B", "test": "AtheNA, Ab 6.25 ug/ml", "excerpt": "as §1"}, "Histones [35]": {"target": "Histones", "test": "AtheNA, Ab 6.25 ug/ml", "excerpt": "as §1"}},
  "data": [
    {"binder": "B1", "values": [
      {"measurement": "binding result", "setting": "SSB [1]", "result": "no binding (tested: 6.25 ug/ml to 50 ug/ml)"},
      {"measurement": "binding result", "setting": "Scl-70 [2]", "result": "no binding (tested: 6.25 ug/ml to 50 ug/ml)"},
      {"measurement": "binding result", "setting": "Jo-1 [3]", "result": "no binding (tested: 6.25 ug/ml to 50 ug/ml)"},
      {"measurement": "binding result", "setting": "STUB-1", "result": "no binding"},
      {"measurement": "Athena reading", "setting": "SSA [4]", "result": "4 relative luminescence units"},
      {"measurement": "Athena reading", "setting": "SSB [5]", "result": "12 relative luminescence units"},
      {"measurement": "Athena reading", "setting": "Sm (Smith antigen) [6]", "result": "6 relative luminescence units"},
      {"measurement": "Athena reading", "setting": "RNP (ribonucleoprotein) [7]", "result": "6 relative luminescence units"},
      {"measurement": "Athena reading", "setting": "Scl-70 [8]", "result": "4 relative luminescence units"},
      {"measurement": "Athena reading", "setting": "Jo-1 [9]", "result": "2 relative luminescence units"},
      {"measurement": "Athena reading", "setting": "Centromere B [10]", "result": "25 relative luminescence units"},
      {"measurement": "Athena reading", "setting": "Histones [11]", "result": "8 relative luminescence units"},
      {"measurement": "Athena reading", "setting": "SSA [12]", "result": "6 relative luminescence units"},
      {"measurement": "Athena reading", "setting": "SSB [13]", "result": "15 relative luminescence units"},
      {"measurement": "Athena reading", "setting": "Sm (Smith antigen) [14]", "result": "8 relative luminescence units"},
      {"measurement": "Athena reading", "setting": "RNP (ribonucleoprotein) [15]", "result": "10 relative luminescence units"},
      {"measurement": "Athena reading", "setting": "Scl-70 [16]", "result": "6 relative luminescence units"},
      {"measurement": "Athena reading", "setting": "Jo-1 [17]", "result": "10 relative luminescence units"},
      {"measurement": "Athena reading", "setting": "Centromere B [18]", "result": "46 relative luminescence units"},
      {"measurement": "Athena reading", "setting": "Histones [19]", "result": "16 relative luminescence units"},
      {"measurement": "Athena reading", "setting": "SSA [20]", "result": "3 relative luminescence units"},
      {"measurement": "Athena reading", "setting": "SSB [21]", "result": "9 relative luminescence units"},
      {"measurement": "Athena reading", "setting": "Sm (Smith antigen) [22]", "result": "6 relative luminescence units"},
      {"measurement": "Athena reading", "setting": "RNP (ribonucleoprotein) [23]", "result": "3 relative luminescence units"},
      {"measurement": "Athena reading", "setting": "Scl-70 [24]", "result": "3 relative luminescence units"},
      {"measurement": "Athena reading", "setting": "Jo-1 [25]", "result": "5 relative luminescence units"},
      {"measurement": "Athena reading", "setting": "Centromere B [26]", "result": "16 relative luminescence units"},
      {"measurement": "Athena reading", "setting": "Histones [27]", "result": "6 relative luminescence units"},
      {"measurement": "Athena reading", "setting": "SSA [28]", "result": "4 relative luminescence units"},
      {"measurement": "Athena reading", "setting": "SSB [29]", "result": "5 relative luminescence units"},
      {"measurement": "Athena reading", "setting": "Sm (Smith antigen) [30]", "result": "4 relative luminescence units"},
      {"measurement": "Athena reading", "setting": "RNP (ribonucleoprotein) [31]", "result": "4 relative luminescence units"},
      {"measurement": "Athena reading", "setting": "Scl-70 [32]", "result": "3 relative luminescence units"},
      {"measurement": "Athena reading", "setting": "Jo-1 [33]", "result": "5 relative luminescence units"},
      {"measurement": "Athena reading", "setting": "Centromere B [34]", "result": "11 relative luminescence units"},
      {"measurement": "Athena reading", "setting": "Histones [35]", "result": "4 relative luminescence units"}
    ]}
  ]
}
